Source: patent publication US20160096882A1

Tests used:
Test in all cases: cell-based or functional assay
[1] = biological target: H3N2 Wisconsin/67/05 hemagglutinin (Influenza A virus H3N2 Wisconsin/67/05)
[2] = biological target: H5N1 Vietnam/1203/04 hemagglutinin (Influenza A virus H5N1 Vietnam/1203/04)
[3] = biological target: H1N1 New Caledonia/20/99 hemagglutinin (Influenza A virus H1N1 New Caledonia/20/99)

B1: 1286-A11 antibody (antibody, V domains shown)
VH: QVQLQQSGPRLVKPSQTLSLTCAISGDSVSGDSGTWNWIRQSPSRGLEWLGRTYYRSKWYNDYAESVKSRIVIKADTSKNEFSLQLNSVTPEDTAIYYCARAGVKIFGLIVGALDNWGRGTLVTVSS
VL: EIVMTQSPGTLSLSPGERATLSCRASQSVSSSYLAWYQQKPGQAPRLLIYGASTRATGVPDRFHGGGSGTDFTLTISRLEPEDFAVYYCQQYDTSSGLTFGGGTKVEIK
Neutralization MIC [1]: > 333 µg/mL | Neutralization MIC [2]: 333 µg/mL | Neutralization MIC [3]: 83 µg/mL
